Assay results: the DeepSol protein solubility set

Assay: soluble on expression in E. coli; label from the status in PepcDB or PDB records
For “MAQSSAQLLFDESGQPFIVMREQENQKRITGVEAVKSHILAARAVANTLRTSLGPRGLDKMLVSPDGDVTITNDGATIMEKMDVQHHVAKLMVELSKSQDHEIGDGTTGVVVLAGALLEEAEKLIDRGIHPIKIADGFDLACKKALETLDSISDKFPVENRERLVETAQTSLGSKIVNRSLRQFAEIAVDAVLSVADIESKDVNFEMIKMEGKVGGRLEDTILVKGIVIDKTMSHPQMPKELKNAKVAILTCPFEPPKPKTKHKLDITSTEDFKALRDYERETFETMIRQVKESGATLAICQWGFDDEANHLLQANDLPAVRWVGGPEIELLAIATNARIVPRFSELSKEKLGTAGLVREITFGAAKDRMLSIEQCPNNKAVTIFVRGGNKMIIDEAKRALHDALCVIRNLVRDSRIVYGGGSAELAAAIQVAKEADRIDGIEQYAFRAFADALESIPMALAENSGLAPIDALSDLKAKQIETGKSSLGIDAVFAGTNDMKEQKVIETLLSKREQISLATQVVRMILKIDDVRVPDDERMGY”, the “soluble on expression in E. coli” value was “not soluble”. In the case of “MSEDSELIEQVIEQPDSLIISPPSDSSSSSYNHIQPFVYLESTATTQTNHNVLLILNQKITIDLISLWKKCEIIVCADGGANSLYEYFNDNNHHHHHENLQRSDYIPDYIVGDFDSISPDVKTYYESHGSKIIRQSSQYYNDFTKSIHCIQLHYQLNHTKENWFESIDEVDGLAKLWNGLNNSSDVVVDIDITIYVLNAIGGRFDQTVQSINQLYIMNEDYPKVTVFFITTNDIIFLLKKGVNYISYKNRLMFHKDNGSSPTPTCGLLPLSNKTPIILNSYGLKYDMRNWKTEMLGQVSSSNRISGETGFIVECSDDIVMNIEIDV”, the “soluble on expression in E. coli” value is reported as “soluble”. With “SLSSTVSYWILNSTRNSIATLQGGRRLYSRYVSNRNKLKWRLFSRVPPTLNSSPCGGFTLCKAYRHTSTEEDDFHLQLSPEQINEVLRAGETTHKILDLESRVPNSVLRFESNQLAANSPVEDRRGVASCLQTNGLMFGIFDGHGGHACAQAVSERLFYYVAVSLMSHQTLEHMEGAMESMKPLLPILHWLKHPGDSIYKDVTSVHLDHLRVYWQELLDLHMEMGLSIEEALMYSFQRLDSDISLEIQAPLEDEVTRNLSLQVAFSGATACMAHVDGIHLHVANAGDCRAILGVQEDNGMWSCLPLTRDHNAWNQAELSRLKREHPESEDRTIIMEDRLLGVLIPCRAFGDVQLKWSKELQRSILERGFNTEALNIYQFTPPHYYTPPYLTAEPEVTYHRLRPQDKFLVLASDGLWDMLSNEDVVRLVVGHLAEADWHKTDLAQRPANLGLMQSLLLQRKASGLHEADQNAATRLIRHAIGNNEYGEMEAERLAAMLTLPEDLARMYRDDITVTVVYFNSESIGAYYKGG” the “soluble on expression in E. coli” value was “not soluble”. In the case of “MEIIGGKEVSPHSRPFMASIQYGGHHVCGGVLIDPQWVLTAAHCQYRFTKGQSPTVVLGAHSLSKNEASKQTLEIKKFIPFSRVTSDPQSNDIMLVKLQTAAKLNKHVKMLHIRSKTSLRSGTKCKVTGWGATDPDSLRPSDTLREVTVTVLSRKLCNSQSYYNGDPFITKDMVCAGDAKGQKDSCKGDAGGPLICKGVFHAIVSGGHECGVATKPGIYTLLTKKYQTWIKSNLVPPHTN”, the “soluble on expression in E. coli” value is reported as “soluble”. In the case of “MDINQNYREAVKTIKEAILRSQYRAATSVNKEQLSLYYGIGRYVSKNSRIGFWGKGAIEQISSLLQKELPGLRGFSTSNIKNMRVFYEEWEPVLNRQPLAGDLVLDEKLLLSVIRQPLADEFNWSDFFSIGFSHHTEIISKAKTLEARLFYIHECAIRYWSKYTLRDYLKADLYSHRGTLPNNFAQTLPDTKQALKAVCSFKDEYLLDFINVEELDEQEEDLDEKIVEKSIVANVKKFIMTFGQDFSFIGNQYRVEVAGEEMFIDLLFFNRELNSLVAVELKSGKFRSSYLGQLNTYLSALDSYVRKPHENPSIGIILCREMNQTFVEFAVRDYNKPMGVATYRTSKDMPERLRNALPDIEELRKLL”, the “soluble on expression in E. coli” value is reported as “not soluble”. With “MTQQGAALQNYNNELVKCIEELCQKREELCRQIQQEEDEKQRLQNEVRQLTEKLARVNENLARKIASRNEFDRTIAETEAAYLKILESSQTLLSVLKREAGNLTKATASDQKSSGGKDS” the “soluble on expression in E. coli” value was “not soluble”. In the case of “MGSDKIHHHHHHAQESLFLKDPSTKNKLLQLDLDVGTCFDLAYRGKGNMYTAMSDRKSVFPAINLRLQHFFSRKWGWYTNIRLGIPVKYRRDCYTELVHAVEADYYVNNLIPGTQKPDVNPCLDFGVAYRFENSHWAFYPRLGIGVNSISYQRVCAELKKKGGNELYKIEYRGDDESNYGSESIDAFILSAGITANYKLSRNCFLLLNVNYIQPLGRFTYRKYVTDLYTGEKVERGVYKSSTFARDLNVSVGFGFPFYLGRKTNRKSSHRERTRQLMEQKRKTYGLFPGNK”, the “soluble on expression in E. coli” value is reported as “not soluble”. In the case of “MNPKHFIAFSALFAATQAEALPVASVSPDTVTVSPSAPYTDTNGLLTDYGNAAASPWMKKLRSVAQGSGEAFRILQIGDSHTAGDFFTDALRKRLQKTWGDGGIGWVYPANVKGQRMAAVRYNGNWQSLNSRSAAADFPLGGILAQTGSGGSMTLTASDGKTGKQRVSLFAKPLLAEQTLTVNGNTVSANGGGWQVLDTGAALPLAIQTEMPWDIGFINIENPAGGITVSAMGINGAQLTQWSKWRADRMNDLAQTGADLVILSYGTNEAFNNNIDIADTEQKWLDTVRQIRDSLPAAGILIIGAPESLKNTLGVCGTRPVLLTEVQQMQRRVARQGQTMFWSWQNAMGGICSMKNWLNQGWAAKDGVHFSAQGYRRAAEMLADSLEELVRAAAIR”, the “soluble on expression in E. coli” value is reported as “soluble”. With “MGSDKIHHHHHHMDPRSEVLLRQAELFQGPLLIAGAPADDLLGQLPQAQAWTWHAGDQAMLESRFAGRSHYGVEAPEAAFDSAVLFLPKSRELAAYLLNALASRLAGRELYLVGEKRGGIEGAAKQLQAFGKPRKLDSARHCQLWQVTIDQAPQAKPLESLAERFELALEDGPLQVVSLPGVFSHGRLDRGTALLLKHLDGLPGGHMLDFGCGAGVLGATLKRRYPQSRVTLLDVDAFAVAASRLTLAANGLEGEVISGDGIDAAPTELSLILSNPPFHTGVHTNYQASENLLKKSAVHLRKGGEMRLVANSFLRYQPLIEGALGNCQVRDEADGFRIYQATRG” the “soluble on expression in E. coli” value was “not soluble”. With “MSLDFATEYVYPAFSELTGTDKIVAFGDHSHKCPIYVPQTPPCTAECPAGEDIRAINRFLNGTDPSDDPLKSAWETATDTNPFPAVMGRICPHPCQSKCNRGVHDESVAINAVEQVLGNYGIEHNLKLKGPGADTGKRVAIIGGGPAGLSAAYQLRRKGHAVTIYDANEKLGGMVLYGIMGYRVDRKVLEAEIGRIIELGVETKMGVTIGKDITLEQLEAEYDAVFIAVGAQKGRALPVPGFEGTPGATNAIDFLKSYEVLGDDIPVGKHVVVIGDGNVSMDVARLALRLGSQATIISGVPREEMACFENEFDDAKNEGTTMHFLTGTVEVLGGASGVTGLRCTKMVKKEKGEEGWNSPIPFLRYKSNGESFEIEADMVVAAIGQATDLSGLGSAASGPWLKVDRNFRIPGREKLFGGGDALKVDLITTAVGHGRKAAYAIDAFLKGEPMPEEGHHHHHH” the “soluble on expression in E. coli” value was “soluble”. With “MKHMPRKMYSCAFETTTKVEDCRVWAYGYMNIEDHSEYKIGNSLDEFMAWVLKVQADLYFHNLKFAGAFIINWLERNGFKWSADGLPNTYNTIISRMGQWYMIDICLGYKGKRKIHTVIYDSLKKLPFPVKKIAKDFKLTVLKGDIDYHKERPVGYKITPEEYAYIKNDIQIIAEALLIQFKQGLDRMTAGSDSLKGFKDIITTKKFKKVFPTLSLGLDKEVRYAYRGGFTWLNDRFKEKEIGEGMVFDVNSLYPAQMYSRLLPYGEPIVFEGKYVWDEDYPLHIQHIRCEFELKEGYIPTIQIKRSRFYKGNEYLKSSGGEIADLWLSNVDLELMKEHYDLYNVEYISGLKFKATTGLFKDFIDKWTYIKTTSEGAIKQLAKLMLNSLYGKFASNPDVTGKVPYLKENGALGFRLGEEETKDPVYTPMGVFITAWARYTTITAAQACYDRIIYCDTDSIHLTGTEIPDVIKDIVDPKKLGYWAHESTFKRAKYLRQKTYIQDIYMKEVDGKLVEGSPDDYTDIKFSVKCAGMTDKIKKEVTFENFKVGFSRKMKPKPVQVPGGVVLVDDTFTIK” the “soluble on expression in E. coli” value was “soluble”.
